Assays:
[1] = biological target: human LILRB2 expressed on cells (human) (UniProt Q8N423); assay: flow cytometry, human whole blood, neutrophils
[2] = biological target: Cyno Monocytes / Cyno Neutrophils (Macaca fascicularis); assay: flow cytometry, cyno whole blood, monocytes
[3] = biological target: Rhesus Monocytes / Rhesus Neutrophils (Macaca mulatta); assay: flow cytometry, rhesus whole blood, monocytes
human LILRA1 (human) = human LILRA1 (human) (UniProt O75019); assay: flow cytometry, LILRA1 CHOs
[4] = biological target: Rhesus Monocytes / Rhesus Neutrophils (Macaca mulatta); assay: flow cytometry, rhesus whole blood, neutrophils
human LILRA4 (human) = human LILRA4 (human) (UniProt P59901); assay: flow cytometry, LILRA4 CHOs
[5] = biological target: human LILRB2 expressed on cells (human) (UniProt Q8N423); assay: flow cytometry, human whole blood, monocytes
[6] = biological target: Cyno Monocytes / Cyno Neutrophils (Macaca fascicularis); assay: flow cytometry, cyno whole blood, neutrophils

Chain of human LILRB2 expressed on cells (human) (Q8N423 other isoform, or with tags, fused parts or gaps limits assumed): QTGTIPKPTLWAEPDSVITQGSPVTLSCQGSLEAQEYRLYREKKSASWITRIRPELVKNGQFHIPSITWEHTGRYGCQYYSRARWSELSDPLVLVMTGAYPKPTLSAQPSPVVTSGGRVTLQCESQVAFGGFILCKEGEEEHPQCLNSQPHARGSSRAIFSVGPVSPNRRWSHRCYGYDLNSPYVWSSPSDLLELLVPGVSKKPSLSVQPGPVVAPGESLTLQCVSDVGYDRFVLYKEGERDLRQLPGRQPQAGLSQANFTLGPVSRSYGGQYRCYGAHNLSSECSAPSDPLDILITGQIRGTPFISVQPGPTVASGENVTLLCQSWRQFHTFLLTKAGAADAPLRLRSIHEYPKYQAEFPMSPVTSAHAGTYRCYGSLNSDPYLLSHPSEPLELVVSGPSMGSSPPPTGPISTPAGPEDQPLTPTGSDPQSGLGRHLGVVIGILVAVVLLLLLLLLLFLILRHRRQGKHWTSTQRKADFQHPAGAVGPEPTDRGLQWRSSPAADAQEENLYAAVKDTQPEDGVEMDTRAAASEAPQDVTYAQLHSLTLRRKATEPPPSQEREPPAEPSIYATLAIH
Chain of human LILRA4 (human) (P59901 other isoform, or with tags, fused parts or gaps limits assumed): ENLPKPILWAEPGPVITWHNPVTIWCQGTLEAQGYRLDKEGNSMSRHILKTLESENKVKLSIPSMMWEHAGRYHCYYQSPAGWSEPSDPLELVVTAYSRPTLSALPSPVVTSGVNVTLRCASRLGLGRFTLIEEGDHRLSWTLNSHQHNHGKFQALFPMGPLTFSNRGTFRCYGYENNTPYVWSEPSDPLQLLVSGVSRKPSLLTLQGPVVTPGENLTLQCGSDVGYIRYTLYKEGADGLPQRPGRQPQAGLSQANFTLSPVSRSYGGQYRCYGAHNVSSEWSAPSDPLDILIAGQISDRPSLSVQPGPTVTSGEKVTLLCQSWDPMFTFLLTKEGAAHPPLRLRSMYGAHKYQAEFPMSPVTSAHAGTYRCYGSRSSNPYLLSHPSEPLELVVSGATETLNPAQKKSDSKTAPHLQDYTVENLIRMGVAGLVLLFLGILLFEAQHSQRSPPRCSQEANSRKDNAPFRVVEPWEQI
Chain of human LILRA1 (human) (O75019 17-489 limits assumed): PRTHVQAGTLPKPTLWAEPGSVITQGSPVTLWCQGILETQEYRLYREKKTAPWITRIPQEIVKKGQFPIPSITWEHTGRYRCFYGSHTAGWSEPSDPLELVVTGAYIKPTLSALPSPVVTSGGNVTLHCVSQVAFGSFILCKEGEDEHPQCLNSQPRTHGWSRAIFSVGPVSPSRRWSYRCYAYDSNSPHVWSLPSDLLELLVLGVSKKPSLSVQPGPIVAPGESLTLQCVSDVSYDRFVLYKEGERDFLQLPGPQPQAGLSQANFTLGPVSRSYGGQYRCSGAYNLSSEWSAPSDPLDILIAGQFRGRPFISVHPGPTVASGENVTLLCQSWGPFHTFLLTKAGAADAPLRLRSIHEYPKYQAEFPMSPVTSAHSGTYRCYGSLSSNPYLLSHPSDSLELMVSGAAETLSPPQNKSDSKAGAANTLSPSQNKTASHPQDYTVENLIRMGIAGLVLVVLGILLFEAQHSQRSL

isotype control mAb (antibody)
1: Human Neutrophils binding (fold over iso) (fold over iso) [1] | Cyno Monocytes binding (fold over iso) (fold over iso) [2] | Rhesus Monocytes binding (fold over iso) (fold over iso) [3] | binding (fold over iso) (fold over iso) (human LILRA1 (human)) | Rhesus Neutrophils binding (fold over iso) (fold over iso) [4] | binding (fold over iso) (fold over iso) (human LILRA4 (human)) | Human Monocytes binding (fold over iso) (fold over iso) [5] | Cyno Neutrophils binding (fold over iso) (fold over iso) [6]
